From publication PMC13480645

Legend:
[1] = biological target: SARS-CoV-2 S-2P protein (SARS-CoV-2 | bacteriophage T4)
S2P6 (human) = assay: BLI
Chain of S2P6 (human) (VH, as listed by the source, chain 1 of 2): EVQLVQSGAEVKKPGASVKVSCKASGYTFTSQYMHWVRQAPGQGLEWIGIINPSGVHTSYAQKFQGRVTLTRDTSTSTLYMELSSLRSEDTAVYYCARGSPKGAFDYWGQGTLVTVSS
Chain of S2P6 (human) (VL, as listed by the source, chain 2 of 2): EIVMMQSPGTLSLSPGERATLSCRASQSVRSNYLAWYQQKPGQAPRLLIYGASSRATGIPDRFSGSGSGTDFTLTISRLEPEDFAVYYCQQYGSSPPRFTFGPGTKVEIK

Chain of S2P6 (antibody) (VH): as the sequence (VH, as listed by the source, chain 1 of 2) above
Chain of S2P6 (antibody) (VL): as the sequence (VL, as listed by the source, chain 2 of 2) above

Row | Substance | IC50 of neutralisation of SARS-CoV-2 pseudovirus (HeLa-hACE2 cells) [1] [µg/mL] | Kd (S2P6 (human)) [nM] | kon (S2P6 (human)) [M⁻¹ s⁻¹]
1 | S2P6 (antibody) | 6.16 | – | –
2 | SARS-CoV-2 S-2P protein (domain or fragment) | – | 1.3 | 559000
